In paper PMC5591422, “A Peptide-Fc Opsonin with Pan-Amyloid Reactivity” (Frontiers in Immunology, 2017):
Ends that are not written are not given here.

Columns and labels:
[1] = biological target: rVλ6Wil amyloid-like fibrils; assay: SPR; BIAcore X, CM5 chip coated with rVλ6Wil fibrils (channel 1) and rVλ6Wil monomer (channel 2, subtracted as control); Fcp5 2 µg/mL or p5 0.2 µg/mL, 70 µL, 20 µL/min, 200 s binding and 200 s dissociation; two-state binding algorithm with conformational change
[2] = biological target: Aβ(1–40) amyloid-like fibrils; assay: ELISA; EuLISA: amyloid-like fibrils (0.83 µM) adsorbed to microplate wells overnight at 37°C, blocked with 1% BSA in PBS; Fcp5, biotinylated-p5 or Fc2a titrated in PBS with 1% BSA and 0.05% tween 20; detected with biotinylated goat anti-mouse IgG and europium-streptavidin; estimated EC50
[3] = biological target: rVλ6Wil amyloid-like fibrils; assay: as above
[4] = biological target: T1, IAPP amyloid-like fibrils (human, UniProt P10997 34-70); assay: as above; details: both partners purified
T1 construct: islet amyloid polypeptide, the mature hormone; Fibrillar state; also called IAPP fibrils; islet amyloid polypeptide fibrils; source: bought: Anaspec (90% pure); fibrils prepared in sterile PBS
T1 peptide (looked up): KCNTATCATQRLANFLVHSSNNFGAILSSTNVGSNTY

Binder	Kd [1]	signal deflection [1]	EC50 [2]	EC50 [3]	EC50 [4]
GGGYSKAQKAQAKQAKQAQKAQKAQAKQAKQ (also: biotinylated in EuLISA, site not given here, 125I-labelled in pulldown assays, non-natural 31-amino acid peptide with eight lysines in a heptad repeat; also called biotinylated-p5; source: synthetic peptide (Anaspec), purified by RP-HPLC) [peptide p5]	5 nM	100 au	230 nM	14 nM	~200 nM
VTPTVGGGYSKAQKAQAKQAKQAQKAQKAQAKQAKQVTPTV (Fc fusion, not fully specified (C-terminus); also: fused to murine IgG2a Fc, glycosylated, site not given here, 5-amino acid spacer flanking p5; peptide p5, non-natural 31-amino acid polybasic peptide; Disulfide-linked dimer by SDS-PAGE (theoretical monomer Mw 31,553); Cloned into the Nco I and Bgl II sites of pFUSE-mIgG2A-Fc in frame with the IL-2 secretory leader and the Fc; also called peptide p5-Fc fusion construct; source: HEK293T/17, transient transfection, purified from culture supernatant (protein …)) [Fcp5 (peptide p5-murine IgG2a Fc fusion)]	3 nM	200 au	4 nM	1 nM	~15 nM
